{"source": "the supplement of paper PMC10567573", "parents": {"B1": {"name": "KCNK9 (parent)", "chain": "CFITLTTIGFGDYVALQTKGALQK"}}}
{"variants_of": "B1", "assay": "protein stability index of a GFP-peptide fusion (GPS, HEK-293T) (PSI 1-6); higher = more stable", "settings": "c terminus: a fixed tail appended"}
{"variant": "CQITLTTIGFGDYVALQTKGALQK", "note": "[F2Q]", "protein stability index": 1.82}
{"variant": "CRITLTTIGFGDYVALQTKGALQK", "note": "[F2R]", "protein stability index": 2.18}
{"variant": "CSITLTTIGFGDYVALQTKGALQK", "note": "[F2S]", "protein stability index": 2.72}
{"variant": "CTITLTTIGFGDYVALQTKGALQK", "note": "[F2T]", "protein stability index": 2.04}
{"variant": "CVITLTTIGFGDYVALQTKGALQK", "note": "[F2V]", "protein stability index": 2.51}
{"variant": "CYITLTTIGFGDYVALQTKGALQK", "note": "[F2Y]", "protein stability index": 1.79}
{"variant": "CFATLTTIGFGDYVALQTKGALQK", "note": "[I3A]", "protein stability index": 2.03}
{"variant": "CFCTLTTIGFGDYVALQTKGALQK", "note": "[I3C]", "protein stability index": 2.68}
{"variant": "CFDTLTTIGFGDYVALQTKGALQK", "note": "[I3D]", "protein stability index": 2.82}
{"variant": "CFETLTTIGFGDYVALQTKGALQK", "note": "[I3E]", "protein stability index": 2.03}
{"variant": "CFFTLTTIGFGDYVALQTKGALQK", "note": "[I3F]", "protein stability index": 1.52}
{"variant": "CFGTLTTIGFGDYVALQTKGALQK", "note": "[I3G]", "protein stability index": 1.68}
{"variant": "CFHTLTTIGFGDYVALQTKGALQK", "note": "[I3H]", "protein stability index": 1.82}
{"variant": "CFKTLTTIGFGDYVALQTKGALQK", "note": "[I3K]", "protein stability index": 2.06}
{"variant": "CFLTLTTIGFGDYVALQTKGALQK", "note": "[I3L]", "protein stability index": 2.05}
{"variant": "CFMTLTTIGFGDYVALQTKGALQK", "note": "[I3M]", "protein stability index": 2.05}
{"variant": "CFNTLTTIGFGDYVALQTKGALQK", "note": "[I3N]", "protein stability index": 1.86}
{"variant": "CFPTLTTIGFGDYVALQTKGALQK", "note": "[I3P]", "protein stability index": 2.68}
{"variant": "CFQTLTTIGFGDYVALQTKGALQK", "note": "[I3Q]", "protein stability index": 2.13}
{"variant": "CFRTLTTIGFGDYVALQTKGALQK", "note": "[I3R]", "protein stability index": 1.78}
{"variant": "CFSTLTTIGFGDYVALQTKGALQK", "note": "[I3S]", "protein stability index": 2.11}
{"variant": "CFTTLTTIGFGDYVALQTKGALQK", "note": "[I3T]", "protein stability index": 1.87}
{"variant": "CFWTLTTIGFGDYVALQTKGALQK", "note": "[I3W]", "protein stability index": 2.2}
{"variant": "CFYTLTTIGFGDYVALQTKGALQK", "note": "[I3Y]", "protein stability index": 2.82}
{"variant": "CFIALTTIGFGDYVALQTKGALQK", "note": "[T4A]", "protein stability index": 2.99}
{"variant": "CFICLTTIGFGDYVALQTKGALQK", "note": "[T4C]", "protein stability index": 3.91}
{"variant": "CFIDLTTIGFGDYVALQTKGALQK", "note": "[T4D]", "protein stability index": 2.54}
{"variant": "CFIELTTIGFGDYVALQTKGALQK", "note": "[T4E]", "protein stability index": 2.07}
{"variant": "CFIFLTTIGFGDYVALQTKGALQK", "note": "[T4F]", "protein stability index": 2.95}
{"variant": "CFIGLTTIGFGDYVALQTKGALQK", "note": "[T4G]", "protein stability index": 2.63}
{"variant": "CFIHLTTIGFGDYVALQTKGALQK", "note": "[T4H]", "protein stability index": 2.23}
{"variant": "CFIILTTIGFGDYVALQTKGALQK", "note": "[T4I]", "protein stability index": 1.52}
{"variant": "CFIKLTTIGFGDYVALQTKGALQK", "note": "[T4K]", "protein stability index": 3.64}
{"variant": "CFIMLTTIGFGDYVALQTKGALQK", "note": "[T4M]", "protein stability index": 3.53}
{"variant": "CFINLTTIGFGDYVALQTKGALQK", "note": "[T4N]", "protein stability index": 3.41}
{"variant": "CFIPLTTIGFGDYVALQTKGALQK", "note": "[T4P]", "protein stability index": 2.13}
{"variant": "CFIQLTTIGFGDYVALQTKGALQK", "note": "[T4Q]", "protein stability index": 1.99}
{"variant": "CFIRLTTIGFGDYVALQTKGALQK", "note": "[T4R]", "protein stability index": 2.99}
{"variant": "CFISLTTIGFGDYVALQTKGALQK", "note": "[T4S]", "protein stability index": 3.03}
{"variant": "CFIVLTTIGFGDYVALQTKGALQK", "note": "[T4V]", "protein stability index": 2.25}
{"variant": "CFIWLTTIGFGDYVALQTKGALQK", "note": "[T4W]", "protein stability index": 2.91}
{"variant": "CFITATTIGFGDYVALQTKGALQK", "note": "[L5A]", "protein stability index": 1.85}
{"variant": "CFITCTTIGFGDYVALQTKGALQK", "note": "[L5C]", "protein stability index": 3.26}
{"variant": "CFITDTTIGFGDYVALQTKGALQK", "note": "[L5D]", "protein stability index": 2.42}
{"variant": "CFITETTIGFGDYVALQTKGALQK", "note": "[L5E]", "protein stability index": 2.38}
{"variant": "CFITFTTIGFGDYVALQTKGALQK", "note": "[L5F]", "protein stability index": 3.73}
{"variant": "CFITGTTIGFGDYVALQTKGALQK", "note": "[L5G]", "protein stability index": 2.48}
{"variant": "CFITHTTIGFGDYVALQTKGALQK", "note": "[L5H]", "protein stability index": 1.77}
{"variant": "CFITITTIGFGDYVALQTKGALQK", "note": "[L5I]", "protein stability index": 3.75}
{"variant": "CFITKTTIGFGDYVALQTKGALQK", "note": "[L5K]", "protein stability index": 1.59}
{"variant": "CFITMTTIGFGDYVALQTKGALQK", "note": "[L5M]", "protein stability index": 2.65}
{"variant": "CFITNTTIGFGDYVALQTKGALQK", "note": "[L5N]", "protein stability index": 2.12}
{"variant": "CFITPTTIGFGDYVALQTKGALQK", "note": "[L5P]", "protein stability index": 2.17}
{"variant": "CFITQTTIGFGDYVALQTKGALQK", "note": "[L5Q]", "protein stability index": 2.07}
{"variant": "CFITRTTIGFGDYVALQTKGALQK", "note": "[L5R]", "protein stability index": 2.24}
{"variant": "CFITSTTIGFGDYVALQTKGALQK", "note": "[L5S]", "protein stability index": 1.6}
{"variant": "CFITTTTIGFGDYVALQTKGALQK", "note": "[L5T]", "protein stability index": 1.57}
{"variant": "CFITVTTIGFGDYVALQTKGALQK", "note": "[L5V]", "protein stability index": 2.34}
{"variant": "CFITWTTIGFGDYVALQTKGALQK", "note": "[L5W]", "protein stability index": 2.72}
{"variant": "CFITYTTIGFGDYVALQTKGALQK", "note": "[L5Y]", "protein stability index": 3.03}
{"variant": "CFITLCTIGFGDYVALQTKGALQK", "note": "[T6C]", "protein stability index": 3.41}
{"variant": "CFITLDTIGFGDYVALQTKGALQK", "note": "[T6D]", "protein stability index": 2.36}
{"variant": "CFITLETIGFGDYVALQTKGALQK", "note": "[T6E]", "protein stability index": 1.83}
{"variant": "CFITLFTIGFGDYVALQTKGALQK", "note": "[T6F]", "protein stability index": 2.57}
{"variant": "CFITLGTIGFGDYVALQTKGALQK", "note": "[T6G]", "protein stability index": 1.69}
{"variant": "CFITLHTIGFGDYVALQTKGALQK", "note": "[T6H]", "protein stability index": 1.44}
{"variant": "CFITLITIGFGDYVALQTKGALQK", "note": "[T6I]", "protein stability index": 2.13}
{"variant": "CFITLKTIGFGDYVALQTKGALQK", "note": "[T6K]", "protein stability index": 2.11}
{"variant": "CFITLLTIGFGDYVALQTKGALQK", "note": "[T6L]", "protein stability index": 3.01}
{"variant": "CFITLMTIGFGDYVALQTKGALQK", "note": "[T6M]", "protein stability index": 4.77}
{"variant": "CFITLNTIGFGDYVALQTKGALQK", "note": "[T6N]", "protein stability index": 2.89}
{"variant": "CFITLPTIGFGDYVALQTKGALQK", "note": "[T6P]", "protein stability index": 1.21}
{"variant": "CFITLQTIGFGDYVALQTKGALQK", "note": "[T6Q]", "protein stability index": 1.51}
{"variant": "CFITLRTIGFGDYVALQTKGALQK", "note": "[T6R]", "protein stability index": 2.85}
{"variant": "CFITLSTIGFGDYVALQTKGALQK", "note": "[T6S]", "protein stability index": 3.54}
{"variant": "CFITLVTIGFGDYVALQTKGALQK", "note": "[T6V]", "protein stability index": 3.1}
{"variant": "CFITLYTIGFGDYVALQTKGALQK", "note": "[T6Y]", "protein stability index": 2.71}
{"variant": "CFITLTAIGFGDYVALQTKGALQK", "note": "[T7A]", "protein stability index": 4.42}
{"variant": "CFITLTDIGFGDYVALQTKGALQK", "note": "[T7D]", "protein stability index": 2.15}
{"variant": "CFITLTEIGFGDYVALQTKGALQK", "note": "[T7E]", "protein stability index": 2.94}
{"variant": "CFITLTFIGFGDYVALQTKGALQK", "note": "[T7F]", "protein stability index": 3.36}
{"variant": "CFITLTHIGFGDYVALQTKGALQK", "note": "[T7H]", "protein stability index": 2.63}
{"variant": "CFITLTIIGFGDYVALQTKGALQK", "note": "[T7I]", "protein stability index": 3.49}
{"variant": "CFITLTKIGFGDYVALQTKGALQK", "note": "[T7K]", "protein stability index": 1.73}
{"variant": "CFITLTLIGFGDYVALQTKGALQK", "note": "[T7L]", "protein stability index": 3.38}
{"variant": "CFITLTMIGFGDYVALQTKGALQK", "note": "[T7M]", "protein stability index": 2.54}
{"variant": "CFITLTNIGFGDYVALQTKGALQK", "note": "[T7N]", "protein stability index": 1.78}
{"variant": "CFITLTPIGFGDYVALQTKGALQK", "note": "[T7P]", "protein stability index": 2.32}
{"variant": "CFITLTQIGFGDYVALQTKGALQK", "note": "[T7Q]", "protein stability index": 2.52}
{"variant": "CFITLTRIGFGDYVALQTKGALQK", "note": "[T7R]", "protein stability index": 2.44}
{"variant": "CFITLTSIGFGDYVALQTKGALQK", "note": "[T7S]", "protein stability index": 2.53}
{"variant": "CFITLTVIGFGDYVALQTKGALQK", "note": "[T7V]", "protein stability index": 2.77}
{"variant": "CFITLTWIGFGDYVALQTKGALQK", "note": "[T7W]", "protein stability index": 4.77}
{"variant": "CFITLTYIGFGDYVALQTKGALQK", "note": "[T7Y]", "protein stability index": 2.13}
